Data: patent publication US20220315654A1 (NOVIMMUNE, published 2022)
Residue numbers refer to the chain shown, from its start.

T1: recombinant human PD-L2 soluble protein (biotinylated) (human, UniProt Q9BQ51 20-220, limits assumed, biotinylated)
T1 construct: Bought soluble protein
T1 sequence (looked up): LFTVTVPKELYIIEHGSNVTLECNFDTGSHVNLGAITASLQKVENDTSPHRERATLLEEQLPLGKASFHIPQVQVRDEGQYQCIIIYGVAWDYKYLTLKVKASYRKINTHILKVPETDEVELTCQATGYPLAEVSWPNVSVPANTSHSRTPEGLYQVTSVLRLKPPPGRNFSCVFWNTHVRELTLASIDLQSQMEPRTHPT

B1: K2×S93 CD47×PD-L1 bispecific antibody (bispecific antibody, human IgG1, kappa, lambda)
heavy: not shown
light 1: not shown
light 2: QSVLTQPPSASGTPGQRVTISCVSTSDHIAHKPVNWYQQLPGTAPKLLIYHDTSRPDGVPDRFSGSKSGTSASLAISGLQSEDEADYYCAAWDFATWPATEVFGGGTKLTVLGQPKAAPSVTLFPPSSEELQANKATLVCLISDFYPGAVTVAWKADSSPVKAGVETTTPSKQSNNKYAASSYLSLTPEQWKSHRSYSCQVTHEGSTVEKTVAPTECS
notes: also called K2xS93; K2×S93 bsAb
B2: K2×S94 CD47×PD-L1 bispecific antibody (bispecific antibody, human IgG1, kappa, lambda)
heavy: not shown
light 1: not shown
light 2: B1 light 2 with V23I, T25G, D27V, H28D, R55T
notes: also called K2xS94; S94 bsAb
B3: K2×S96 CD47×PD-L1 bispecific antibody (bispecific antibody, human IgG1, kappa, lambda)
heavy: not shown
light 1: not shown
light 2: B1 light 2 with V23N, S24L, T25P, D27A, H28D, R55V, P56V, D57T
notes: also called K2xS96; K2×S96 bsAb
B4: S46 bsAb (bispecific antibody, human IgG1, kappa, lambda)
common heavy chain: not shown
kappa light chain (anti-CD47 K2): not shown
lambda light chain (anti-PD-L1 S46): QSALTQPASVSGSPGQSITISCTGTSSDVLRPPLVSWYQQHPGKAPKLMIYFASLRPSGVSNRFSGSKSGNTASLTISGLQAEDEADYYCSSWDNAGDGHVFGGGTKLTVLGQPKAAPSVTLFPPSSEELQANKATLVCLISDFYPGAVTVAWKADSSPVKAGVETTTPSKQSNNKYAASSYLSLTPEQWKSHRSYSCQVTHEGSTVEKTVAPTECS
notes: also called K2xS46 CD47xPD-L1 bispecific antibody; K2xS46
B5: K2×S23 CD47×PD-L1 bispecific antibody (bispecific antibody, human IgG1, kappa, lambda)
heavy: not shown
light 1: not shown
light 2: B4 lambda light chain (anti-PD-L1 S46) with L30A, R31K, P32I
notes: also called K2xS23; K2×S23 bsAb
B6: K2×S79 CD47×PD-L1 bispecific antibody (bispecific antibody, human IgG1, kappa, lambda)
heavy: not shown
light 1: not shown
light 2: B4 lambda light chain (anti-PD-L1 S46) with L30F, N95H, A96T
notes: also called K2xS79; S79 bsAb
B7: S79 anti-PD-L1 mAb (antibody, human IgG1, lambda, V domains shown)
VH: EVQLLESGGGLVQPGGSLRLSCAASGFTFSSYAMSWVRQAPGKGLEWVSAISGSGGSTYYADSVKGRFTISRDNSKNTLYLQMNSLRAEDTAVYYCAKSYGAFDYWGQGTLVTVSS
VL: QSALTQPASVSGSPGQSITISCTGTSSDVFRPPLVSWYQQHPGKAPKLMIYFASLRPSGVSNRFSGSKSGNTASLTISGLQAEDEADYYCSSWDHTGDGHVFGGGTKLTVLG
notes: Bivalent monospecific IgG1 anti-PD-L1 antibody; also called S79_Sc3_1G7_VLCL2 aPDL1 IGLV2-23; anti-PD-L1 mAb S79
B8: S100 anti-PD-L1 mAb (antibody, human IgG1, lambda, V domains shown)
VH: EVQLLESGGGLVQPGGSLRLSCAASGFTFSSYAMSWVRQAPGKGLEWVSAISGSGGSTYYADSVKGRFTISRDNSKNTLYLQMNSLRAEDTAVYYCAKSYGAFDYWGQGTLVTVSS
VL: QSVLTQPPSASGTPGQRVTISCSGSSSNIENKPVNWYQQLPGTAPKLLIYHDTTRPSGVPDRFSGSKSGTSASLAISGLQSEDEADYYCAAWDFATWPATEVFGGGTKLTVLG
notes: Bivalent monospecific anti-PD-L1 antibody; also called anti-PD-L1 mAb 5100
B9: K2×S15 CD47×PD-L1 bispecific antibody (bispecific antibody, human IgG1, kappa, lambda)
heavy: not shown
light 1: not shown
light 2: QSALTQPASVSGSPGQSITISCTGTSSDVVKNNFVSWYQQHPGKAPKLMIYFGSVRPSGVSNRFSGSKSGNTASLTISGLQAEDEADYYCSSWDEPDRPFGGGTKLTVLGQPKAAPSVTLFPPSSEELQANKATLVCLISDFYPGAVTVAWKADSSPVKAGVETTTPSKQSNNKYAASSYLSLTPEQWKSHRSYSCQVTHEGSTVEKTVAPTECS
notes: also called K2xS15; K2×S15 bsAb
B10: K2×S58 CD47×PD-L1 bispecific antibody (bispecific antibody, human IgG1, kappa, lambda)
heavy: not shown
light 1: not shown
light 2: B9 light 2 with T23N, G24S, T25P, R56T, P57G, S58P
notes: also called K2xS58; K2×S58 bsAb

Assays:
[1] = biological target: T2, recombinant human PD-L1 soluble protein (biotinylated) (human, UniProt Q9NZQ7 19-238, biotinylated); assay: BLI (OctetRED96), biotinylated PD-L1 on streptavidin biosensors, bsAb in solution, 1:1 global fit, 30 °C
T2 construct: Bought soluble protein; also called hPD-L1
T2 sequence (Q9NZQ7 19-238 limits assumed): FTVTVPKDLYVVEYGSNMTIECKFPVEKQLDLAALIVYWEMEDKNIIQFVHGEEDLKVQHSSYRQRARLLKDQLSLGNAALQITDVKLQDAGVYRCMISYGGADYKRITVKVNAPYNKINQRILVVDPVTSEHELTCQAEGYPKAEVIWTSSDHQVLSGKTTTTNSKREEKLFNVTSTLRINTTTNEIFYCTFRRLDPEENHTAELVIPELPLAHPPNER

[2] = biological target: T2, recombinant human PD-L1 soluble protein …; assay: sandwich ELISA: antibody captured on coated anti-human Fc, biotinylated recombinant human PD-L1 titrated (x axis, nM), streptavidin-HRP/Amplex red fluorescence
[3] = biological target: T3, human PD-L1 on cells (human PD-L1-transfected CHO cells; IFNg-induced HT-1080 tumor cells) (human, UniProt Q9NZQ7 19-290); assay: inhibition of human PD-1-moFc binding to human PD-L1-transfected CHO cells, CellInsight CX5
T3 construct: whole, on cells; CHO transfectants are negative for human CD47; HT-1080 cells also carry CD47; also called hPD-L1-transfected CHO cells; PD-L1+CD47+ HT-1080
T3 sequence (Q9NZQ7 19-290): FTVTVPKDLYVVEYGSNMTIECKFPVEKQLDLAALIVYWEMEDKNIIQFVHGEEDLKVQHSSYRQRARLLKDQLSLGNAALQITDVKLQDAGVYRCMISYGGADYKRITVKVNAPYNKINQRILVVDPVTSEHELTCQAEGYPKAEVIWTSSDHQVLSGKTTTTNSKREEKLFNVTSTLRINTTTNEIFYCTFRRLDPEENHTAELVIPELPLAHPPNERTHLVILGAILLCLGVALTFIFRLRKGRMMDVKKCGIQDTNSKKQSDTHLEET

[4] = biological target: T4, recombinant cynomolgus monkey PD-L1 soluble protein (biotinylated) (cynomolgus monkey, UniProt G7PSE7 19-238, biotinylated (site not stated); vendor tag not carried in the letters); assay: sandwich ELISA: antibody captured on coated anti-human Fc, biotinylated recombinant cynomolgus PD-L1 titrated (x axis, nM), streptavidin-HRP/Amplex red fluorescence
T4 construct: Two suppliers are named for the two assays; also called Cyno PD-L1; cynomolgus PD-L1; not shown: vendor tag(s) of the recombinant proteins (Sino Biological; Acrobiosystems #PD1-052H4) and the biotin label
T4 sequence (G7PSE7 entry or part of it limits assumed): as the sequence (Q9NZQ7 19-238 limits assumed) above, with A33T, A34S, S62N, R68Q, Q82R, F173L, T185A, T192I, H215L counted along it

[5] = biological target: T5, recombinant mouse PD-L1 soluble protein (biotinylated) (mouse, UniProt Q9EP73 19-239, limits assumed, biotinylated); assay: sandwich ELISA: antibody captured on coated anti-human Fc, biotinylated recombinant mouse PD-L1 titrated, streptavidin-HRP/Amplex red fluorescence
T5 construct: Two sources are named for the two assays
T5 sequence (Q9EP73 19-239 limits assumed): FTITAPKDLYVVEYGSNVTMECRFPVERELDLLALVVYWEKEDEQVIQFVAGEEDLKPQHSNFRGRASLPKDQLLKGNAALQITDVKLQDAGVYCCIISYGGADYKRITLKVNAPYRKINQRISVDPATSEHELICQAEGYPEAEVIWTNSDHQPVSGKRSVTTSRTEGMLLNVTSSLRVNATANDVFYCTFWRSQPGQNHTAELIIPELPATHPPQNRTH

[6] = biological target: T5, recombinant mouse PD-L1 soluble protein …; assay: sandwich ELISA: antibody captured on coated anti-human Fc, biotinylated recombinant mouse PD-L1 titrated (x axis, nM), streptavidin-HRP/Amplex red fluorescence
[7] = biological target: T6, human CD47 on cells (Raji, Nalm-6, HT-1080 tumor cells, human red blood cells) (human, UniProt Q08722 19-323); assay: flow cytometry on human red blood cells (CD47+, PD-L1-), detection with AF647 anti-human Fc F(ab')2
T6 construct: whole, on cells; Raji, Nalm-6 and red blood cells carry no or very little PD-L1; HT-1080 carries both targets; also called IAP

[8] = biological target: T1, recombinant human PD-L2 soluble protein …; assay: sandwich ELISA: antibody captured on coated anti-Fc, biotinylated recombinant human PD-L2 titrated, streptavidin-HRP/Amplex red fluorescence
[9] = biological target: T5, recombinant mouse PD-L1 soluble protein …; assay: BLI (OctetRED96), biotinylated mouse PD-L1 on streptavidin biosensors, bsAb in solution, 1:1 global fit, 30 °C
[10] = biological target: T4, recombinant cynomolgus monkey PD-L1 …; assay: BLI (OctetRED96), biotinylated cynomolgus PD-L1 on streptavidin biosensors, bsAb in solution, 1:1 global fit, 30 °C
[11] = biological target: T3, human PD-L1 on cells (human …); assay: inhibition of human PD-1-moFc binding to IFNg-induced PD-L1+CD47+ HT-1080 cells, CellInsight CX5

Row | Binder | Kd [1] [nM] | EC50 (read off the curve) [2] [nM] | EC50 (read off the curve) [4] [nM] | EC50 (read off the curve) [6] [nM] | binding result [8] | other results
1 | B1 | 0.7 |  |  |  |  | 
2 | B2 | 0.7 | ~0.07 | ~0.03 |  |  | IC50 [3]: 0.05 nM; binding result [5]: no binding (tested: about 33 nM PD-L1 protein)
3 | B3 | 0.8 |  |  |  |  | 
4 | B4 |  | ~0.1 | ~0.6 | ~0.07 |  | 
5 | B5 | 0.92 | ~0.1 |  |  | no binding (tested: about 40 nM PD-L2 protein) | binding result [7]: binds; binding result [6]: binds
6 | B6 | 0.5 | ~0.07 | ~0.03 | ~0.03 | no binding (tested: about 40 nM PD-L2 protein) | Kd [9]: 0.52 nM; IC50 [3]: 0.03 nM; Kd [10]: 1.35 nM
7 | B7 |  | ~0.07 | ~0.03 | ~0.03 | no binding (tested: about 40 nM PD-L2 protein) | IC50 [11]: 0.00252 nM
8 | B8 |  | ~0.07 | ~0.03 |  | no binding (tested: about 40 nM PD-L2 protein) | binding result [5]: no binding (tested: about 33 nM PD-L1 protein); IC50 [11]: 0.00084 nM
9 | B9 | 3 |  |  |  |  | 
10 | B10 | 0.83 |  |  |  |  | 
